The data set “cross-linking” concerns the molecule itself. The data set can be described thus: cross-linking.
Data set [1] has as its target T1, soluble PDZK1 purified from bacteria (human, UniProt Q5T2W1 1-519).
T1 sequence (looked up): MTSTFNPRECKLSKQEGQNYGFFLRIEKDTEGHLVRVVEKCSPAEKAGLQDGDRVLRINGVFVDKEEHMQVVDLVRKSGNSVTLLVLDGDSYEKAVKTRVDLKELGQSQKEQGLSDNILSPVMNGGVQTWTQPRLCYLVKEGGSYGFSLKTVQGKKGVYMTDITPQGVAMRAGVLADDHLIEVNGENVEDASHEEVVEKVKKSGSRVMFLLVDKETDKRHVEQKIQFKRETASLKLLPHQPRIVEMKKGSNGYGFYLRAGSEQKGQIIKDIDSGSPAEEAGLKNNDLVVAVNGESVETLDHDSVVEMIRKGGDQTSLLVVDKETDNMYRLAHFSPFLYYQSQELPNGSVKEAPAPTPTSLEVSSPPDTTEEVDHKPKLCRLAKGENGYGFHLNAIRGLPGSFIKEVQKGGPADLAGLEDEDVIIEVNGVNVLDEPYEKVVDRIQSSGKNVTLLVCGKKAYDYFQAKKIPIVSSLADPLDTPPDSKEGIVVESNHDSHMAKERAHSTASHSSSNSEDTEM
The data set can be described thus: pull-down.

Data set [2] concerns the target T2, soluble PDZK1 ΔDTEM purified from bacteria (human, UniProt Q5T2W1 1-515).
T2 sequence (looked up): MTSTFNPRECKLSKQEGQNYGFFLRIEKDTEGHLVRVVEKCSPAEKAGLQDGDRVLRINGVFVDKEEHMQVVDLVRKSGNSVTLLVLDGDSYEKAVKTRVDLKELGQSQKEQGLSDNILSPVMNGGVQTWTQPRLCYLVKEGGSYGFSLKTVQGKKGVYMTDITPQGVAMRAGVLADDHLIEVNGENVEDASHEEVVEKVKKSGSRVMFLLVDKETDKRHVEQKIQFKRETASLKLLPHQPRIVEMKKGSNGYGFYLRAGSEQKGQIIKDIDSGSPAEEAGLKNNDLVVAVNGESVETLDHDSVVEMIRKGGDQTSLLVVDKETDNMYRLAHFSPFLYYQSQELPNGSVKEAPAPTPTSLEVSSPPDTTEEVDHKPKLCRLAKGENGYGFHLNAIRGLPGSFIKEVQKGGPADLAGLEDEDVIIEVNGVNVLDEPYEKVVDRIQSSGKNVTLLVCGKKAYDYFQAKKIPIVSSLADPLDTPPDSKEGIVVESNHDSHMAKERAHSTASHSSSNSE
Briefly: pull-down.

For orientation: stoichiometry N means a count of units in the complex or per binding partner.

B1: PDZK1 PDZs 3 and 4 to the end of the protein (amino acids 227–515), soluble (domain or fragment, human, UniProt Q5T2W1 227-515, looked up)
chain: FKRETASLKLLPHQPRIVEMKKGSNGYGFYLRAGSEQKGQIIKDIDSGSPAEEAGLKNNDLVVAVNGESVETLDHDSVVEMIRKGGDQTSLLVVDKETDNMYRLAHFSPFLYYQSQELPNGSVKEAPAPTPTSLEVSSPPDTTEEVDHKPKLCRLAKGENGYGFHLNAIRGLPGSFIKEVQKGGPADLAGLEDEDVIIEVNGVNVLDEPYEKVVDRIQSSGKNVTLLVCGKKAYDYFQAKKIPIVSSLADPLDTPPDSKEGIVVESNHDSHMAKERAHSTASHSSSNSE
Regarding B1, the “stoichiometry N” value in the data set “cross-linking” was determined as 2.

B2: GST-PDZK1-tail (domain or fragment, human, UniProt Q5T2W1 458-519, looked up)
chain: KAYDYFQAKKIPIVSSLADPLDTPPDSKEGIVVESNHDSHMAKERAHSTASHSSSNSEDTEM
Take B2: the binding result in data set [1] and in data set [2] was “binds” each time.

Source of the values: article PMC2765514 (Biochemistry, 2009).
